Reference: article PMC9652086

Biological target: h4#147D, humanized IgG4-formatted anti-CD147 antibody (IgG4Pro, heavy chain S228P) (human)
Test: SPR; Biacore T200; purified h4#147D captured on the sensor chip with a human antibody capture kit, recombinant human or monkey CD147 injected; 1:1 fitting model

Chain of h4#147D, humanized IgG4-formatted anti-CD147 antibody (IgG4Pro, heavy chain S228P) (human) (heavy, as listed by the source, chain 1 of 2): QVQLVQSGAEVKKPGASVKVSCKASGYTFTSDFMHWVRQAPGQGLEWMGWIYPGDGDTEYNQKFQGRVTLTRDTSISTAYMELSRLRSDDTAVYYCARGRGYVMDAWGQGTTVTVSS
Chain of h4#147D, humanized IgG4-formatted anti-CD147 antibody (IgG4Pro, heavy chain S228P) (human) (light, as listed by the source, chain 2 of 2): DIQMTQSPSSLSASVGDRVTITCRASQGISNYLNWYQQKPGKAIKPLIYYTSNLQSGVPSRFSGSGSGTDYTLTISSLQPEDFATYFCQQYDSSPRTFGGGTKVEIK

## recombinant monkey CD147 protein (natural protein)
  Kd: 5.8 nM
